The values that follow come from US20060183159A1, “Method for engineering a protein by in vitro coevolution” (priority 2005, published 2006).

Assay [1] in a line: Competitive binding (RBA) with 2 nM [3H]-E2, testosterone.
The test system of a further assay is corticosterone. Kind of assay: Yeast two-hybrid based cell growth assay, response to corticosterone. The conditions noted are these: in yeast; corticosterone 10^−4 M, 24 hours (up to four days at 30° C.). On the procedure: (§1) A yeast two-hybrid based cell growth assay was used to quantify the ligand activity of the wild-type and mutant hERαLBD in 96-well plates (Chen, et al. (2004) supra). Briefly, yeast cells harboring the plasmid containing the target hERαLBD and plasmid pGAD424 SRC-1 were grown to saturation (OD600 4-5) in 2-3 mL minimal medium lacking tryptophan and leucine, and then diluted to OD600 0.002 using minimal medium lacking tryptophan, leucine and histidine. Each well contained 200 μL diluted yeast cells and 0.2 μL of specified ligand dissolved in 100% ethanol (E2, testosterone, and progesterone) or DMSO (corticosterone). The 96-well plates were incubated at 30° C. for 24 hours and the cell density was measured at 600 nm using a SPECTRAMAX® plate reader (Molecular Devices, Sunnyvale, Calif.).

Assay [2] can be described thus: Competitive binding (RBA) with 2 nM [3H]-E2, progesterone.
Assay [3] is described as follows: Scatchard analysis of E2 binding to wild-type and mutant hERαLBD proteins. The conditions noted are these: n = 2-3, error = range (n = 2) or S.E. (n > 2).
The nature of assay [4]: Competitive binding (RBA) with 2 nM [3H]-E2, corticosterone.
Another assay deals with progesterone. The assay can be described thus: Yeast two-hybrid based cell growth assay, response to progesterone. The conditions noted are these: in yeast; saturating ligand concentration 10^−5 M. As to the method:
as §1

Where [5] appears, read: RBA = EC50^E2/EC50^ligand × 100, 2 nM [3H]-E2.

Entries after “also recorded” stand apart in the source; their conditions may differ.

B1: Pg10-1: hERαLBD variant with Glu353Gln, Gly390Asp, His524Asn, Leu536His, Thr585Ser (SEQ ID NOs:11 and 12) (protein)
chain: MTMTLHTKASGMALLHQIQGNELEPLNRPQLKIPLERPLGEVYLDSSKPAVYNYPEGAAYEFNAAAAANAQVYGQTGLPYGPGSEAAAFGSNGLGGFPPLNSVSPSPLMLLHPPPQLSPFLQPHGQQVPYYLENEPSGYTVREAGPPAFYRPNSDNRRQGGRERLASTNDKGSMAMESAKETRYCAVCNDYASGYHYGVWSCEGCKAFFKRSIQGHNDYMCPATNQCTIDKNRRKSCQACRLRKCYEVGMMKGGIRKDRRGGRMLKHKRQRDDGEGRGEVGSAGDMRAANLWPSPLMIKRSKKNSLALSLTADQMVSALLDAEPPILYSEYDPTRPFSEASMMGLLTNLADRQLVHMINWAKRVPGFVDLTLHDQVHLLECAWLEILMIDLVWRSMEHPGKLLFAPNLLLDRNQGKCVEGMVEIFDMLLATSSRFRMMNLQGEEFVCLKSIILLNSGVYTFLSSTLKSLEEKDHIHRVLDKITDTLIHLMAKAGLTLQQQHQRLAQLLLILSHIRHMSNKGMENLYSMKCKNVVPHYDLLLEMLDAHRLHAPTSRGGASVEETDQSHLATAGSTSSHSLQKYYISGEAEGFPATV
On to B1, for which the “RBA T (testosterone)” value in assay [1] (setting [5]) is given as 0.21 ± 0.06 (3). In addition, the Kd in assay [1] (calculated with Kd^ligand = (Kd^E2/RBA) × 100, read-out: Kd T (testosterone)) is 388 nM; in assay [2] (calculated with Kd^ligand = (Kd^E2/RBA) × 100, read-out: Kd Pg (progesterone)) it was 119 nM; in assay [3] it was 0.81 ± 0.23 nM; in assay [4] (calculated with Kd^ligand = (Kd^E2/RBA) × 100, read-out: Kd Cs (corticosterone)) it was 10300 nM. The response to corticosterone entry in the assay on corticosterone is listed as “significant responses to corticosterone; also recorded: responded to corticosterone at submillimolar concentrations”. For the same molecule, the “RBA Pg (progesterone)” value in assay [2] (setting [5]) is listed as 0.679 ± 0.021 (3). For the same molecule, the “RBA Cs (corticosterone)” value in assay [4] (setting [5]) is given as 0.008 ± 0.001 (3). The response to progesterone result in the assay on progesterone is listed as “responses to progesterone at nanomolar concentrations”.

As a reminder, the Kd is the constant that tells how readily two partners part at equilibrium.
